Measurements published in US20140165223A1, “TNF SUPERFAMILY TRIMERIZATION INHIBITORS” (B.S.R.C. "Alexander Fleming", priority 2011, published 2014).
Changes are numbered by the printed parent chain. Numbers in names are those of the source. Values belong to the molecule of their own block, whether it stands above or below them.

What was measured:
[1] = biological target: T1, RANKL (Mus musculus, UniProt O35235); test: Trimer formation in transfected HEK 293FT cells (native gel, Western blot); assay type: cell-based; conditions: co-transfection with WT RANKL-FLAG
T1 construct: expressed in transfected cells; host or cells: HEK 293FT
T1 sequence (O35235 1-316): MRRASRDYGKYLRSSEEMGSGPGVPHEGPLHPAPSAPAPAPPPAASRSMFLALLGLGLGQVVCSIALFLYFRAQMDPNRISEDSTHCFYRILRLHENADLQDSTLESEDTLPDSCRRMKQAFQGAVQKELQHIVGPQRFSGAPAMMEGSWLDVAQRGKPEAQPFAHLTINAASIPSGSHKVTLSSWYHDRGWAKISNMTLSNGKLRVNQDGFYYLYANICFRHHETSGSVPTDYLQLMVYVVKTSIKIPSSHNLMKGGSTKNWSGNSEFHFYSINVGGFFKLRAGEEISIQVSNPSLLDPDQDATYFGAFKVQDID
Experimental: (§1) Similar to the analysis of recombinant RANKL proteins, trimer formation was detected only in WT RANKL-Myc but not in RANKL^G278R-Myc.
(§2) HEK 293FT cells were transfected with 1 μg plasmid DNA using TransIt-293 transfection reagent (Mirus, Madison, Wis.). After 48 hours, transfected cells were harvested in PBS and the half quantity was diluted in equal volume of 2× Laemmli sample buffer, and analyzed in 12% acrylamide denatured gels. The remaining cells were lysed by sonication, centrifuged, and analyzed in 8% native acrylamide gels.

[2] = biological target: T2, RANKL (Mus musculus, UniProt O35235, G278R); test: as above; assay type: cell-based; conditions: HEK 293FT, RANKL^G278R-Myc
T2 construct: expressed in transfected cells; host or cells: HEK 293FT
T2 sequence (O35235 1-316 G278R): T1 sequence (O35235 1-316) with G278R
Experimental: as §1, §2

[3] = biological target: T3, GST-RANKL (Mus musculus, UniProt O35235); test: Ex vivo RANKL-induced osteoclast formation (BM cells, M-CSF + GST-RANKL, TRAP staining); assay type: cell-based
T3 construct: a cDNA encoding the core ectodomain of murine RANKL residues 158-316, with or without the G278R substitution; made in house; host or cells: Escherichia coli BL21
T3 sequence (O35235 158-316): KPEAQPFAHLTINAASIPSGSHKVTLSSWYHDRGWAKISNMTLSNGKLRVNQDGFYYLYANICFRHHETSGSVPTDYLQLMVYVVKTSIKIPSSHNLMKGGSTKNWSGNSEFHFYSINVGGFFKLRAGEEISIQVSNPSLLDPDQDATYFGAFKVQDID
Experimental: (§3) Instead, WT GST-RANKL (ratio 1:0) induced formation of TRAP+ giant osteoclasts (FIGS. 5A-5C). […] Incubation of WT GST-RANKL with GST at similar concentrations (12.5-100 ng/ml), didn't affect the formation of osteoclasts.
(§4) A novel small molecule inhibitor of TNF trimerization, named SPD304, has been recently reported^[35] to interact with glycine 122 (G122) that corresponds to G278 in RANKL.
(§5) BM cells were collected after flushing out of femurs and tibiae, subjected to gradient purification using FICOLL-PAQUE™ (GE Healthcare), plated in 24-well plates at a density of 5×10^5 cells per well and cultured in αMEM medium (GIBCO) containing 10% fetal bovine serum supplemented with 40 ng/ml RANKL (R&D Systems) and 25 ng/ml M-CSF (R&D Systems) for 5 days. Similarly, splenocytes were collected, plated in 24-well plates at a density of 10^6 cells per well and cultured in the presence of recombinant RANKL and M-CSF for 6 days. GST-RANKL^G278R was pre-incubated with WT GST-RANKL at room temperature for 20 min, prior to the stimulation of the BM cell cultures, in order to enable exchange of the RANKL variants and heterotrimer formation. Small molecule SPD304 (Sigma-Aldrich) was pre-incubated with 80 ng/ml GST-RANKL at various concentrations from 0.25 to 2 μM in αMEM medium for 1 hour at room temperature and then added to culture. Osteoclasts were stained for TRAP activity.

[4] = test system: GST-RANKL; test: as above; assay type: cell-based, mouse; conditions: ratio WT GST-RANKL:GST-RANKL^G278R 0:1
Experimental: as §3, §4, §5

[5] = biological target: T4, RANK-Fc (Mus musculus, UniProt O35305); test: Binding assay of GST-RANKL^G278R to RANK; conditions: immobilized protein, serial dilutions of murine RANK-Fc
T4 construct: purchased R&D systems
T4 sequence (O35305 with tags, fused parts or gaps limits assumed): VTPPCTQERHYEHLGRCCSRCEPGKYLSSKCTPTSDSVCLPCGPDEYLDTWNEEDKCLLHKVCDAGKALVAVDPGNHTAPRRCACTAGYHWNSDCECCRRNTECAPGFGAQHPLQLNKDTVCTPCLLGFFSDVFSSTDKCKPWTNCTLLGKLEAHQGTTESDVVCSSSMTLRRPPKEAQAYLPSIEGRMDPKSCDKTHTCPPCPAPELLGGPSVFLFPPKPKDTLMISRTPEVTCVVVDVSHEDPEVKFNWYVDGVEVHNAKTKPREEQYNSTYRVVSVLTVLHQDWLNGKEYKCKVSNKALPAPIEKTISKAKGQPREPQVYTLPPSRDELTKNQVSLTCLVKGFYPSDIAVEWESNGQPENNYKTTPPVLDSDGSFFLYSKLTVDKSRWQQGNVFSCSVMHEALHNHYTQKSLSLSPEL
Experimental: RANK-Fc interacted with GST-RANKL in a dose-dependent manner, but not with GST-RANKL^G278R or GST.
Nunc plates were coated with recombinant WT GST-RANKL, GST-RANKL^G278R or GST at 3 μg/ml and after blocking with 1% BSA, were incubated with increasing amount of recombinant mouse RANK-Fc (R&D systems). RANK binding was detected with a phycoerythrin (PE) conjugated goat anti-human IgG (Fc) (SouthernBiotech, Birmingham, USA) that was measured (539-573 nm) with the fluorescent plate reader TECAN infinite M200.

effect on WT RANKL trimerization [1]: inhibits WT RANKL trimerization | own trimer formation in eukaryotic cells [2]: fails to form trimers
B1: RANKL^G278R: murine RANKL with glycine to arginine substitution at residue 278; soluble or full-length Myc-tagged (protein, UniProt O35235 139-316, looked up, variant G278R)
Tumor necrosis factor ligand …: FSGAPAMMEGSWLDVAQRGKPEAQPFAHLTINAASIPSGSHKVTLSSWYHDRGWAKISNMTLSNGKLRVNQDGFYYLYANICFRHHETSGSVPTDYLQLMVYVVKTSIKIPSSHNLMKGGSTKNWSGNSEFHFYSINVGRFFKLRAGEEISIQVSNPSLLDPDQDATYFGAFKVQDID
modifications: Myc tag
notes: murine RANKL with glycine to arginine substitution at residue 278; soluble or full-length Myc-tagged

binding affinity for RANK-Fc [5]: completely abolished
B2: GST-RANKL^G278R: murine RANKL ectodomain residues 158-316 with G278R substitution, fused to GST (protein)
chain: T3 sequence (O35235 158-316) with G121R
formation of TRAP+ giant multinucleated cells ([3]; ratio WT GST-RANKL:GST-RANKL^G278R 1:1): completely impaired the formation of TRAP+ giant multinucleated cells | formation of multinucleated TRAP+ osteoclasts ([3]; ratio WT GST-RANKL:GST-RANKL^G278R 1:2 (50 ng/ml GST-RANKL, 100 ng/ml variant)): Complete inhibition in the formation of multinucleated TRAP+ osteoclasts | formation of TRAP+ giant multinucleated cells ([3]; ratio WT GST-RANKL:GST-RANKL^G278R 2:1): a small number of TRAP+ giant multinucleated cells was formed | formation of giant osteoclast-like cells ([3]; ratio WT GST-RANKL:GST-RANKL^G278R 4:1 or higher): Formation of giant osteoclast-like-cells appeared | induction of TRAP+ cells by the variant alone [4]: failed to induce formation of TRAP+ cells
